Laboratory results as given in patent publication US20260092115A1 (Chugai, published 2026).

T1: human CTLA4 (soluble analyte of the Biacore assays of Examples 3-3, 4 and 5) (human, UniProt P16410 36-161)
T1 construct: also called hCTLA4
T1 sequence: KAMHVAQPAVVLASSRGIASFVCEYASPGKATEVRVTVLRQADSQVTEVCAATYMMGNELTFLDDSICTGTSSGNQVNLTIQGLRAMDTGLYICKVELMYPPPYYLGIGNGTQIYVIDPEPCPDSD


How the values were obtained:
[1] = target: T1, human CTLA4 (soluble analyte of the …); assay: SPR 37C, Ab on Protein G, 1000 nM CTLA4, no ATP
Experimental: (§1) Next, by interacting with a human CTLA4 solution prepared in a running buffer containing ATP to the desired concentration, or a human CTLA4 solution prepared in a running buffer containing no ATP, the binding ability of the antibody to human CTLA4 in the presence or absence of ATP was evaluated. Chips were regenerated with 25 mM NaOH and 10 mM Glycine-HCl (pH 1.5), and assay was performed by repeatedly capturing antibodies. The dissociation constant of each antibody for CTLA4 was calculated using Biacore T200 Evaluation Software 2.0. Specifically, the binding rate constant ka (L/mol/s) and the dissociation rate constant kd (1/s) were calculated by global fitting of the sensorgrams obtained by the measurement, using a 1:1 Langmuir binding model. The dissociation constant KD (mol/L) was calculated from those values. Alternatively, the dissociation constant KD (mol/L) was calculated by the steady state model. In addition, the binding amount of CTLA4 per unit amount of antibody was calculated by correcting the amount of CTLA4 bound as calculated from the sensorgram obtained by the assay with the amount of antibody captured onto the chip surface.
(§2) Biacore T200 was used to evaluate the binding of the generated variants to ATP and to human CTLA4. The assay of binding to ATP was performed at 37° C. using 20 mM ACES (pH 7.4), 150 mM NaCl, 2 mM MgCl₂, 0.05% Tween20 as the running buffer. First, Sure Protein A (GE Healthcare) was immobilized onto a Series S Sensor Chip CM3 (GE Healthcare), and the antibodies were captured onto the chip by interacting an antibody solution prepared in the running buffer. Next, the binding ability to the antibody was evaluated by interacting with an ATP solution prepared in the running buffer. Chips were regenerated with 25 mM NaOH and 10 mM Glycine-HCl (pH 1.5) and assay was performed by repeatedly capturing antibodies. For the binding amount of each antibody to ATP, the binding amount of ATP per unit amount of antibody was calculated by correcting the amount of binding when ATP was injected at a concentration of 100 nM with the amount of antibody captured onto the chip surface. Binding to human CTLA4 was measured using Biacore T200 by the method described in Example 3-3.

[2] = target: T1, human CTLA4 (soluble analyte of the …); assay: SPR 37C, Ab on Protein G, 1000 nM CTLA4, ATP 1 uM
Experimental: as §1, §2

[3] = target: T1, human CTLA4 (soluble analyte of the …); assay: SPR 37C, Ab on Protein G, 1000 nM CTLA4, ATP 10 uM
Experimental: as §1, §2

[4] = target: T1, human CTLA4 (soluble analyte of the …); assay: SPR 37C, Ab on Protein G, 1000 nM CTLA4, ATP 100 uM
Experimental: as §1, §2

[5] = target: T1, human CTLA4 (soluble analyte of the …); assay: SPR 37C, Ab on Protein G, 1000 nM CTLA4, no ATP; no ATP; binding amount at 1000 nM CTLA4
Experimental: as §1, with “Biacore T200 was used to measure the binding of the generated antibodies to human CTLA4. 20 mM ACES (pH 7.4), 150 mM NaCl, 2 mM MgCl₂, 0.05% Tween 20 with ATP added to the desired concentration was used as the running buffer, and the assay was performed at 37° C. First, Protein G (CALBIOCHEM) was immobilized onto a Series S Sensor Chip CM3 (GE Healthcare), and the antibodies were captured by interacting an antibody solution prepared in an ATP-free running buffer with the chip. Next,” for “Next,”
(§3) The KD values marked with an * in the table were calculated using the steady state model. It was shown that all the variants prepared using 04H0150-G1m/04L0072-lam1 as the parent antibody had enhanced binding in the presence of ATP as compared to 04H0150-G1m/04L0072-lam1.

[6] = target: T1, human CTLA4 (soluble analyte of the …); assay: SPR 37C, Ab on Protein G, 1000 nM CTLA4, ATP 10 uM; ATP 10 uM; binding amount at 1000 nM CTLA4
Experimental: as §1, with “Biacore T200 was used to measure the binding of the generated antibodies to human CTLA4. 20 mM ACES (pH 7.4), 150 mM NaCl, 2 mM MgCl₂, 0.05% Tween 20 with ATP added to the desired concentration was used as the running buffer, and the assay was performed at 37° C. First, Protein G (CALBIOCHEM) was immobilized onto a Series S Sensor Chip CM3 (GE Healthcare), and the antibodies were captured by interacting an antibody solution prepared in an ATP-free running buffer with the chip. Next,” for “Next,”
as §3

[7] = target: T1, human CTLA4 (soluble analyte of the …); assay: SPR 37C, Ab on Protein G, 1000 nM CTLA4, ATP 1 uM; ATP 1 uM; binding amount at 1000 nM CTLA4
Experimental: as §1, with “Biacore T200 was used to measure the binding of the generated antibodies to human CTLA4. 20 mM ACES (pH 7.4), 150 mM NaCl, 2 mM MgCl₂, 0.05% Tween 20 with ATP added to the desired concentration was used as the running buffer, and the assay was performed at 37° C. First, Protein G (CALBIOCHEM) was immobilized onto a Series S Sensor Chip CM3 (GE Healthcare), and the antibodies were captured by interacting an antibody solution prepared in an ATP-free running buffer with the chip. Next,” for “Next,”
as §3

[8] = target: T1, human CTLA4 (soluble analyte of the …); assay: SPR 37C, Ab on Protein G, 1000 nM CTLA4, ATP 100 uM; ATP 100 uM; binding amount at 1000 nM CTLA4
Experimental: as §1, with “Biacore T200 was used to measure the binding of the generated antibodies to human CTLA4. 20 mM ACES (pH 7.4), 150 mM NaCl, 2 mM MgCl₂, 0.05% Tween 20 with ATP added to the desired concentration was used as the running buffer, and the assay was performed at 37° C. First, Protein G (CALBIOCHEM) was immobilized onto a Series S Sensor Chip CM3 (GE Healthcare), and the antibodies were captured by interacting an antibody solution prepared in an ATP-free running buffer with the chip. Next,” for “Next,”
as §3

[9] = target: T1, human CTLA4 (soluble analyte of the …); assay: SPR 37C, ATP 10 µM
Experimental: as §1, with “Biacore T200 was used to measure the binding of the generated antibodies to human CTLA4. 20 mM ACES (pH 7.4), 150 mM NaCl, 2 mM MgCl₂, 0.05% Tween 20 with ATP added to the desired concentration was used as the running buffer, and the assay was performed at 37° C. First, Protein G (CALBIOCHEM) was immobilized onto a Series S Sensor Chip CM3 (GE Healthcare), and the antibodies were captured by interacting an antibody solution prepared in an ATP-free running buffer with the chip. Next,” for “Next,”, “In addition, the binding amount of CTLA4 per unit amount of antibody was calculated by correcting the amount of CTLA4 bound as calculated from the sensorgram obtained by the assay with the amount of antibody captured onto the chip surface.” left out

Row | Binding to Human CTLA4 (amount per unit antibody) [1] | Binding to Human CTLA4 (amount per unit antibody) [2] | Binding to Human CTLA4 (amount per unit antibody) [3] | Binding to Human CTLA4 (amount per unit antibody) [4] | Binding to Human CTLA4 (amount per unit antibody) [5] | Binding to Human CTLA4 (amount per unit antibody) [6] | Binding to Human CTLA4 (amount per unit antibody) [7] | Binding to Human CTLA4 (amount per unit antibody) [8] | fold enhancement of binding ability against the parent antibody 04H1208-G1m/04L1086-lam1 [9] [fold] | Binder
1 | 0.03 | 0.12 | 0.154 | 0.151 | – | – | – | – | – | 04H1389-G1m/04L1305-k0MT (antibody, human IgG1, kappa) heavy: not shown light: DIVMTQSPLSLPVTPGEPASISCDGPSTGVGDYNYVHWYQQKPGQAPRLLIYFTSKKPSGVPDRFSGSGSGTDFTLKISRVEAEDVGVYYCQTYAAPLGPMFGQGTKLEIKRTVAAPSVFIFPPSDEQLKSGTASVVCLLNNFYPREAKVQWKVDNALQSGNSQESVTEQDSKDSTYSLSSTLTLSKADYEKHKVYACEVTHQGLSSPVTKSFNRGEC
2 | – | – | – | – | 0.004 | 0.041 | 0.007 | 0.114 | – | 04H1077-G1m/04L1034-lam1 (antibody, human IgG1, lambda, V domains shown) VH: EVQLVESGGDLVKPGGGLRLSCAASGFTFSSRTMNWVRQAPGKGLEWVSSISTRSGYIYYAESVKGRFTISRDNAKNSLYLQMNSLRAEDTAVYYCARYGKREDMLWVFDYWGQGTLVTVSS VL: QSALTQPPSASGSPGQTVTISCDGPSTDVGDYNWVSWYQQHPGKAPKLMIYFTSKKPSGVPDRFSGSKSGNTASLTVSGLQAEDEADYFCSTYAAPLGPMFGGGTKLTVLG
3 | – | – | – | – | 0.006 | 0.094 | 0.023 | 0.172 | – | 04H1077-G1m/04L1041-lam1 (antibody, human IgG1, lambda, V domains shown) VH: EVQLVESGGDLVKPGGGLRLSCAASGFTFSSRTMNWVRQAPGKGLEWVSSISTRSGYIYYAESVKGRFTISRDNAKNSLYLQMNSLRAEDTAVYYCARYGKREDMLWVFDYWGQGTLVTVSS VL: QSALTQPPSASGSPGQTVTISCDGPSTDVGDYNYVHWYQQHPGKAPKLMIYFTSKKPSGVPDRFSGSKSGNTASLTVSGLQAEDEADYFCSTYAAPLGPMFGGGTKLTVLG
4 | – | – | – | – | 0.01 | 0.106 | 0.031 | 0.181 | – | 04H1077-G1m/04L1086-lam1 (antibody, human IgG1, lambda, V domains shown) VH: EVQLVESGGDLVKPGGGLRLSCAASGFTFSSRTMNWVRQAPGKGLEWVSSISTRSGYIYYAESVKGRFTISRDNAKNSLYLQMNSLRAEDTAVYYCARYGKREDMLWVFDYWGQGTLVTVSS VL: QSALTQPPSASGSPGQTVTISCDGPSTGVGDYNYVHWYQQHPGKAPKLMIYFTSKKPSGVPDRFSGSKSGNTASLTVSGLQAEDEADYFCQTYAAPLGPMFGGGTKLTVLG
5 | – | – | – | – | 0.012 | 0.131 | 0.041 | 0.192 | – | 04H1077-G1m/04L1067-lam1 (antibody, human IgG1, lambda, V domains shown) VH: EVQLVESGGDLVKPGGGLRLSCAASGFTFSSRTMNWVRQAPGKGLEWVSSISTRSGYIYYAESVKGRFTISRDNAKNSLYLQMNSLRAEDTAVYYCARYGKREDMLWVFDYWGQGTLVTVSS VL: QSALTQPPSASGSPGQTVTISCDGPSTGVGDYNYVHWYQQHPGKAPKLMIYFTSKKPSGVPDRFSGSKSGNTASLTVSGLQAEDEADYFCSTYAAPLGPMFGGGTKLTVLG
6 | – | – | – | – | – | – | – | – | ~10 | 04H1382-G1m/04L1086-lam1 (antibody, human IgG1, lambda, V domains shown) VH: EVQLVESGGGLVKPGGSLRLSCAASGFTFSSKTMNWVRQAPGKGLEWVSSISTQSHYIYYARSVKGRFTISRDNAKNSLYLQMNSLRAEDTAVYYCARYGKREDMLWVFDYWGQGTLVTVSS VL: QSALTQPPSASGSPGQTVTISCDGPSTGVGDYNYVHWYQQHPGKAPKLMIYFTSKKPSGVPDRFSGSKSGNTASLTVSGLQAEDEADYFCQTYAAPLGPMFGGGTKLTVLG
7 | 0.01 | 0.037 | 0.111 | 0.166 | 0.013 | 0.137 | 0.047 | 0.196 | – | 04H1207-G1m/04L1086-lam1 (antibody, human IgG1, lambda, V domains shown) VH: EVQLVESGGGLVKPGGSLRLSCAASGFTFSSKTMNWVRQAPGKGLEWVSSISTRSGYIYYAESVKGRFTISRDNAKNSLYLQMNSLRAEDTAVYYCARYGKREDMLWVFDYWGQGTLVTVSS VL: QSALTQPPSASGSPGQTVTISCDGPSTGVGDYNYVHWYQQHPGKAPKLMIYFTSKKPSGVPDRFSGSKSGNTASLTVSGLQAEDEADYFCQTYAAPLGPMFGGGTKLTVLG
8 | 0.003 | 0.022 | 0.084 | 0.139 | 0.005 | 0.108 | 0.03 | 0.17 | – | 04H1208-G1m/04L1086-lam1 (antibody, human IgG1, lambda, V domains shown) VH: EVQLVESGGGLVKPGGSLRLSCAASGFTFSSKTMNWVRQAPGKGLEWVSSISTRSGYIYYARSVKGRFTISRDNAKNSLYLQMNSLRAEDTAVYYCARYGKREDMLWVFDYWGQGTLVTVSS VL: QSALTQPPSASGSPGQTVTISCDGPSTGVGDYNYVHWYQQHPGKAPKLMIYFTSKKPSGVPDRFSGSKSGNTASLTVSGLQAEDEADYFCQTYAAPLGPMFGGGTKLTVLG
